# Measurements taken from US20120219559A1 (Johns Hopkins, published 2012).
# T1: mouse B7-H2/hB7-H2IgV chimera, expressed on 293T cells (human; mouse, UniProt Q9JHJ8 150-322)
# T1 construct: range 150-C-terminus; Mouse B7-H2 Ig V region (Met1-Val149) replaced with the corresponding human region (Met1-Gln123) in the mouse B7-H2 full length gene; also called chimeric gene product
# T1 sequence: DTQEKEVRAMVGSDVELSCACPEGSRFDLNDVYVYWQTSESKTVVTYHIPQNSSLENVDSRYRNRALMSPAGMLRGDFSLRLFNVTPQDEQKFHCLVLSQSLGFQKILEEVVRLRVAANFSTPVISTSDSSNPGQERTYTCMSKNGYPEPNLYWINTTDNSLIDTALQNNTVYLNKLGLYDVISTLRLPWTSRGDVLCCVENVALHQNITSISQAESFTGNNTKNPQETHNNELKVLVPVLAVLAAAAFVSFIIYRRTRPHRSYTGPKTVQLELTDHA
# T2: B7-DC (Mus musculus, UniProt Q9WUL5)
# T2 sequence (membrane protein, looked up): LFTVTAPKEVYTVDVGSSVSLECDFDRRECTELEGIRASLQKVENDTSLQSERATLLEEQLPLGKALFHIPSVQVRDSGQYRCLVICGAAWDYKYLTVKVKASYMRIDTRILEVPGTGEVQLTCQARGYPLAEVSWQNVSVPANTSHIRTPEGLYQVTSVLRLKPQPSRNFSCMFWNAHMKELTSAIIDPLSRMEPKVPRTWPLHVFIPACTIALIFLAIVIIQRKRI
# T3: CD28 (Mus musculus, UniProt P31041)
# T3 sequence (membrane protein, looked up): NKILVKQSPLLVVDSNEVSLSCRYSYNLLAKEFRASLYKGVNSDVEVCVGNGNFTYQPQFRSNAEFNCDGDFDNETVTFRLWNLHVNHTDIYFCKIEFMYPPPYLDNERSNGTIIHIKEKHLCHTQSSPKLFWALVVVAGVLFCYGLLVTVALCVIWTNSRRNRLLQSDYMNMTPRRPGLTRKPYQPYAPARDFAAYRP
# T4: PD-1 (Mus musculus, UniProt Q02242)
# T4 sequence (membrane protein, looked up): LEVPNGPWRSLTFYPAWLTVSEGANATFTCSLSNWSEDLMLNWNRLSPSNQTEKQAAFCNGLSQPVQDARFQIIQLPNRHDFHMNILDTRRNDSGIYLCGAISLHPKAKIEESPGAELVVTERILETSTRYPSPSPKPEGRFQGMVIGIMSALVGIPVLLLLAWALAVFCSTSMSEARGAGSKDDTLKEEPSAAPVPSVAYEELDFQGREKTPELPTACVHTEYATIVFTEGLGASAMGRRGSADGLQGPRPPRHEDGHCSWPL
# T5: ICOS (Mus musculus, UniProt Q9WVS0)
# T5 sequence (membrane protein, looked up): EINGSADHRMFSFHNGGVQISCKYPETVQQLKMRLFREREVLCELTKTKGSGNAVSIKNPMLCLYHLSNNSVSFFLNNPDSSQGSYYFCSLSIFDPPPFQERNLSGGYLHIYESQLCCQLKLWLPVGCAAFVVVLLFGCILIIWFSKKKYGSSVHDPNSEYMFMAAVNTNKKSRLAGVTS
# T6: mouse B7-H2, full length, expressed on 293T cells (mouse, UniProt Q9JHJ8 44-322)
# T6 construct: whole, on cells
# T6 sequence (looked up): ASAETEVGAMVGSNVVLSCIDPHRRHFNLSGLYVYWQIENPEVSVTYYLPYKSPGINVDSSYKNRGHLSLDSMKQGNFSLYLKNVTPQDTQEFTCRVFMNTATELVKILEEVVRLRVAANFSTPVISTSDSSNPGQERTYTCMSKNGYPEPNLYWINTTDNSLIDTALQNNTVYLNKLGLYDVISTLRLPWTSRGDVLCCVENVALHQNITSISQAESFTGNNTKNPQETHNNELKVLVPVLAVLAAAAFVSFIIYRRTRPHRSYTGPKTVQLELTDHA
# T7: human B7-H7Ig fusion protein (human, UniProt Q9UM44 23-344)
# T7 construct: not shown: Ig Fc tag; made from pMIgV or pHIgV plasmid and detected with anti-mouse Ig
# T7 sequence: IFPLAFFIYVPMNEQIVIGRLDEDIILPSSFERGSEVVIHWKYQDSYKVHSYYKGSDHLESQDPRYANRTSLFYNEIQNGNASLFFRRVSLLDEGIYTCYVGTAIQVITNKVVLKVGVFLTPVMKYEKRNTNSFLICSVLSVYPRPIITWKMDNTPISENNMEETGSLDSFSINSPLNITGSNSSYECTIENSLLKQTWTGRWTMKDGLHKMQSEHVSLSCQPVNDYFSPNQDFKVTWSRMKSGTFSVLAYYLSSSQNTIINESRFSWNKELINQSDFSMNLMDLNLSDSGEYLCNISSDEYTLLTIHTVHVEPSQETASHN
# Assays:
# [1] = target: T1, mouse B7-H2/hB7-H2IgV chimera, …; experiment: flow cytometry, 293T cells expressing the mouse B7-H2/hB7-H2IgV chimera (mB7-H2/hB7-H2IgV+ 293T)
# Experimental: FIGS. 19A-19B. […] The results were analyzed by flow cytometry.
# B7-H1 = B7-H1 (Mus musculus, UniProt Q9EP73); experiment: CDS well image, 293T cells transfected with the mouse gene, stained with the mouse fusion protein
# B7-DC = target: T2, B7-DC; experiment: as above
# CD28 = target: T3, CD28; experiment: as above
# CTLA-4 = CTLA-4 (Mus musculus, UniProt P09793); experiment: as above
# PD-1 = target: T4, PD-1; experiment: as above
# ICOS = target: T5, ICOS; experiment: as above
# [2] = target: T6, mouse B7-H2, full length, expressed on …; experiment: as above
# [3] = target: T7, human B7-H7Ig fusion protein; experiment: CDS screen: 384-well plate of 293T cells, one human transmembrane gene a well; B7-H7Ig plus anti-mIg FMAT blue; total fluorescence per well
# Chain of B7-H1 (Q9EP73 19-290 limits assumed): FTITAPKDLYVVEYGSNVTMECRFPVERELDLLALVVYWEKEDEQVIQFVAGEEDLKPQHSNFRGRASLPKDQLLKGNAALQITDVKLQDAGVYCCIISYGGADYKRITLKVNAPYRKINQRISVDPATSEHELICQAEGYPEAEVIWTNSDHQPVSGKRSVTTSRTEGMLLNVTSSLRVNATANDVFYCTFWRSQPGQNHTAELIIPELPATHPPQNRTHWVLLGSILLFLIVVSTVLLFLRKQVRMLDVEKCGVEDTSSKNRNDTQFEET
binding result [1],binding result (B7-H1),binding result (B7-DC),binding result (CD28),binding result (CTLA-4),binding result (PD-1),binding result (ICOS),binding result [2],binding result [3],Binder
binds,no binding,no binding,no binding,no binding,no binding,no binding,no binding,–,"mouse CD28Ig fusion protein (Fc fusion, UniProt P31041 20-149, looked up, Bought from R&D Systems; Ig (Fc) part not given) NKILVKQSPLLVVDSNEVSLSCRYSYNLLAKEFRASLYKGVNSDVEVCVGNGNFTYQPQFRSNAEFNCDGDFDNETVTFRLWNLHVNHTDIYFCKIEFMYPPPYLDNERSNGTIIHIKEKHLCHTQSSPK"
–,–,–,–,–,–,–,–,binds,"human B7-H7CR, full length, expressed on 293T cells (B7-H7CR+293T cells) (receptor, This id also stands for B7-H7CR on human CD4+ T cells in the functional rows; also called TMIGD2; B7-H7R) LSVQQGPNLLQVRQGSQATLVCQVDQATAWERLRVKWTKDGAILCQPYITNGSLSLGVCGPQGRLSWQAPSHLTLQLDPVSLNHSGAYVCWAAVEIPELEEAEGNITRLFVDPDDPTQNRNRIASFPGFLFVLLGVGSMGVAAIVWGAWFWGRRSCQQRDSGNSPGNAFYSNVLYRPRGAPKKSEDCSGEGKDQRGQSIYSTSFPQPAPRQPHLASRPCPSPRPCPSPRPGHPVSMVRVSPRPSPTQQPRPKGFPKVGEE"
